Where no end group is shown, it is not given here.

The conditions of series [1]: human, microsomes.
Description: At each time point, 10 μL of supernatant was diluted with 90 μL of water with 0.1% trifluoroacetic acid.
The subject of series [2] is WT mice. In words: P1 treatment of WT littermates in the efficacy study. It is filed as in vivo, mouse. The source says:
FIG. 31A-31F: For each of FIG. 31A-31F, data is shown reflecting the results of 3 separate studies (i.e., “Batch 1+2+3”) conducted under identical conditions; “veh” refers to the vehicle saline control. For each of FIG. 31A-31C at week 6, WT: n=15; WT+P1: n=15; R62 veh: n=22; R62+HV3-TAT: n=32; and R62+P1: n=16. For each of FIG. 31D-31F at week 6, WT: n=15; WT+P1: n=15; R62 veh: n=17; R62+HV3-TAT: n=30; and R62+P1: n=13. FIG. 31A depicts the average percent of body weight gain for mice subjected to each treatment. From top to bottom, the week 13 data points correspond to: WT+P1 (˜43%); WT (˜39%); R62+P1 (˜1%); R62+HV3-TAT (˜ 4%); and R62 (˜-9%). […]
In vivo Efficacy Methods—Behavioral Analysis: All experiments in animals were conducted in accordance with protocols approved by the Institutional Animal Care and Use Committee of Northwestern University and were performed based on the National Institutes of Health Guide for the Care and Use of Laboratory Animals. […] Accordingly, hindlimb clasping was assessed with the tail suspension test weekly from the ages 7 to 13 weeks in R6/2 mice and WT littermates. Mice were suspended by the tail for 60 sec and the latency for the hindlimbs or all four paws to clasp was recorded using the following score system: clasping over 10 sec, score 3; 5-10 sec, score 2; 0-5 sec, score 1; 0 sec, score 0. […]

The test system of series [3] is C3a.
Excerpt: Immunocompatibility Methods: The interaction of a compound with blood will affect immune response, biodistribution, and clearance. The complement system is a key player in the innate immune response, and thus assaying the interaction between the complement system and PLPs serves as a litmus test to assess inherent inflammatory activity. Complement component C3a is implicated in all three of the complement activation pathways (classic, alternative, and lectin), thus a significant increase in C3a would warrant further investigation into specific activation of the innate and adaptive immune systems. […] In this assay, mouse weight was estimated as 35 g with an average blood volume of 2 mL for dosing preparation. Tested compounds were incubated at a ratio of 1:250 and 1:500 of compound to human serum for 4 hours prior to dilution and start of the assay. Using the C3a ELISA assay, and following manufacturer's protocol, samples were diluted with sample diluent and C3a control reconstituted with water. […] Serum samples and controls were incubated in C3a antibody coated wells for 2 hours with gentle shaking, before they were gently washed 3× with washing buffer, and primary antibody biotin solution administered to wells. […] After a final wash, developing substrate was added for 30 minutes before imaging on plate reader at 450 nM.

In the case of “P1: PLP homopolymer having peptide side chains of SEQ ID: 1 (HVLVMSATRR), made by ROMP of norbornene peptide monomer M1 (also: side chains of polynorbornene homopolymer (PLP, ROMP of norbornene peptide monomer))”, in series [1], the liver microsomal stability entry is given as “superior stability”. In series [2] (WT mice), this substance yielded a survival rate of 100%. Further, in series [2] (mouse, in vivo), the “effects on motor ability, body weight, or neuropathology” value is listed as “no significant effects”. In addition, the “C3a complement activation compared to the vehicle” value in series [3] was “did not show a statistically significant difference”.
